Reference: PMC6707742

Target: coagulation factor IXa (FIXa) (human, UniProt P00740;P00740 47-191;227-461)
Assay: SPR

coagulation factor IXa (FIXa), sequence (P00740 47-191, chain 1 of 2): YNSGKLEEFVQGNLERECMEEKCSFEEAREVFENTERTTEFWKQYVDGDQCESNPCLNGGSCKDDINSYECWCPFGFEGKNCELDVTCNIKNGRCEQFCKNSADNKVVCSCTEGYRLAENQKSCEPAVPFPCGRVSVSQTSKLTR
coagulation factor IXa (FIXa), sequence (P00740 227-461, chain 2 of 2): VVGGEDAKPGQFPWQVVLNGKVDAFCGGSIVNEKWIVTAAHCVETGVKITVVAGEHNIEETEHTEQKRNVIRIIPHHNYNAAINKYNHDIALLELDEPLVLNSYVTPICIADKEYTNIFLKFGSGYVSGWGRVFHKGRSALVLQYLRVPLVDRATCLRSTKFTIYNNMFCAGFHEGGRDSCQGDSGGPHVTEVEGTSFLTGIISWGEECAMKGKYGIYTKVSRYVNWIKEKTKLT

B1: RB006 (XNA)
RNA: GUGGACUAUACCGCGUAAUGCUGCCUCCAC
modifications: 5' 40 kDa branched mPEG; uppercase 2'-F, lowercase 2'-OMe in GUGGAcuAuAccGcGuAAuGcU(G)CcuCCAC; (G) unmodified; 3' inverted dT
  binding result: binds
